Laboratory results from the supplement of paper PMC7125110.
± gives the standard error. Variants at the floor of the assay were thinned out.

B1: glmS ribozyme (parent)
chain: AUAAAAGCGCCAGAACUACAGAAAUGUAGUUGACGAGGAGGAGGUUUAUCGAAUUUUCGGCGGAUGCCUCCAAA

Experiments:
Details in all cases: with glucosamine-6-phosphate
glucosamine-6-phosphate [1] = variants of: B1; assay: self-cleavage kobs at 40 uM GlcN6P; higher = faster cleavage; RNA array
Procedure, shortened: (§1)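 Barcoded ribozyme variants were transcribed in situ on sequenced MiSeq chips by E. coli RNA polymerase. At 37 °C, a hybridised Cy3 probe tracked them while glucosamine-6-phosphate (40 μM to 10 mM) in HEPES/KCl/Mg(OAc)2 buffer flowed in and tiles were imaged over ~14 h. Per-tile medians of signals normalised to baseline and to non-cleaving reference variants were fit to one- or two-exponential decays, giving kobs. kcat and KM came from weighted Michaelis–Menten fits across concentrations.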

glucosamine-6-phosphate [2] = variants of: B1; assay: self-cleavage kobs at 160 uM GlcN6P; higher = faster cleavage; RNA array
Procedure, shortened: as §1

glucosamine-6-phosphate [3] = variants of: B1; assay: self-cleavage kobs at 640 uM GlcN6P; higher = faster cleavage; RNA array
Procedure, shortened: as §1

glucosamine-6-phosphate [4] = variants of: B1; assay: self-cleavage kobs at 2500 uM GlcN6P; higher = faster cleavage; RNA array
Procedure, shortened: as §1

glucosamine-6-phosphate [5] = variants of: B1; assay: self-cleavage kobs at 10000 uM GlcN6P; higher = faster cleavage; RNA array
Procedure, shortened: as §1

Variant	self-cleavage kobs at 40 uM GlcN6P (glucosamine-6-phosphate [1])	self-cleavage kobs at 160 uM GlcN6P (glucosamine-6-phosphate [2])	self-cleavage kobs at 640 uM GlcN6P (glucosamine-6-phosphate [3])	self-cleavage kobs at 2500 uM GlcN6P (glucosamine-6-phosphate [4])	self-cleavage kobs at 10000 uM GlcN6P (glucosamine-6-phosphate [5])
C34G U47G C68G	0.000102 ± 2.7e-05 s⁻¹	0.000631 ± 0.00031 s⁻¹	8.76e-05 ± 2.5e-05 s⁻¹	7.01e-05 ± 2.4e-05 s⁻¹	7.34e-05 ± 1.5e-05 s⁻¹
C34G A64U	< 1e-05 s⁻¹	< 1e-05 s⁻¹	< 1e-05 s⁻¹	< 1e-05 s⁻¹	< 1e-05 s⁻¹
U31G G38U C61U C71U	< 1e-05 s⁻¹	–	–	–	–
C34U C50G	5.12e-05 ± 1.3e-05 s⁻¹	0.000184 ± 3.2e-05 s⁻¹	0.000831 ± 0.00035 s⁻¹	5.23e-05 ± 2.2e-05 s⁻¹	–
U31G G35U	< 1e-05 s⁻¹	< 1e-05 s⁻¹	< 1e-05 s⁻¹	< 1e-05 s⁻¹	< 1e-05 s⁻¹
G37A U49A	< 1e-05 s⁻¹	–	< 1e-05 s⁻¹	< 1e-05 s⁻¹	–
G32U U49C	< 1e-05 s⁻¹	< 1e-05 s⁻¹	< 1e-05 s⁻¹	< 1e-05 s⁻¹	–
G37U G59A	< 1e-05 s⁻¹	–	< 1e-05 s⁻¹	–	–
G32C A39C	< 1e-05 s⁻¹	< 1e-05 s⁻¹	–	–	–
G32C A39G	< 1e-05 s⁻¹	< 1e-05 s⁻¹	–	3.52e-05 ± 1.2e-05 s⁻¹	0.000101 ± 1.4e-05 s⁻¹
A33U G35U	< 1e-05 s⁻¹	–	< 1e-05 s⁻¹	< 1e-05 s⁻¹	< 1e-05 s⁻¹
G38U U46A	< 1e-05 s⁻¹	< 1e-05 s⁻¹	–	< 1e-05 s⁻¹	–
G35A G44U U49A	< 1e-05 s⁻¹	–	–	–	–
G35C A39C U49A A53U	< 1e-05 s⁻¹	–	–	–	–
C34U U57C	< 1e-05 s⁻¹	< 1e-05 s⁻¹	< 1e-05 s⁻¹	< 1e-05 s⁻¹	< 1e-05 s⁻¹
G35U G60A	< 1e-05 s⁻¹	< 1e-05 s⁻¹	< 1e-05 s⁻¹	< 1e-05 s⁻¹	< 1e-05 s⁻¹
C34U G37C G51A C68A	< 1e-05 s⁻¹	–	–	–	–
G32C G40A C50U C68A	< 1e-05 s⁻¹	–	–	–	< 1e-05 s⁻¹
G32C U45C U69A	< 1e-05 s⁻¹	–	–	–	–
A33C A36G C67G	< 1e-05 s⁻¹	–	–	–	–
A33U A36C A39C G41C G44A U46G G51U C58U A64U	< 1e-05 s⁻¹	–	–	–	< 1e-05 s⁻¹
G32U A53G A64U	< 1e-05 s⁻¹	–	–	–	–
G38A U46G	< 1e-05 s⁻¹	< 1e-05 s⁻¹	< 1e-05 s⁻¹	< 1e-05 s⁻¹	< 1e-05 s⁻¹
C34U U69G	0.000246 ± 5.1e-05 s⁻¹	5.32e-05 ± 2.5e-05 s⁻¹	0.000467 ± 0.00011 s⁻¹	0.00161 ± 0.00069 s⁻¹	0.000285 ± 4.5e-05 s⁻¹
G37C A39G C50U	< 1e-05 s⁻¹	–	–	–	–

Variant	self-cleavage kobs at 40 uM GlcN6P (glucosamine-6-phosphate [1])	self-cleavage kobs at 160 uM GlcN6P (glucosamine-6-phosphate [2])	self-cleavage kobs at 640 uM GlcN6P (glucosamine-6-phosphate [3])	self-cleavage kobs at 2500 uM GlcN6P (glucosamine-6-phosphate [4])	self-cleavage kobs at 10000 uM GlcN6P (glucosamine-6-phosphate [5])
G35U G62C	< 1e-05 s⁻¹	< 1e-05 s⁻¹	< 1e-05 s⁻¹	< 1e-05 s⁻¹	< 1e-05 s⁻¹
U30G U45A C71U	0.000183 ± 4.7e-05 s⁻¹	–	–	–	0.00282 ± 0.0011 s⁻¹
A36U C50G U69C	0.000561 ± 0.00011 s⁻¹	–	–	–	0.000905 ± 0.00017 s⁻¹
A36G G38C U55A	< 1e-05 s⁻¹	–	–	–	< 1e-05 s⁻¹
A36G U45C U56A	< 1e-05 s⁻¹	–	–	–	–
A33U A42U U65G	< 1e-05 s⁻¹	–	–	–	< 1e-05 s⁻¹
G38C U55G	< 1e-05 s⁻¹	< 1e-05 s⁻¹	< 1e-05 s⁻¹	< 1e-05 s⁻¹	< 1e-05 s⁻¹
G37A A39C G40U	< 1e-05 s⁻¹	–	–	–	4.03e-05 ± 1e-05 s⁻¹
U31C G60U	< 1e-05 s⁻¹	< 1e-05 s⁻¹	–	–	< 1e-05 s⁻¹
G32A C61G	< 1e-05 s⁻¹	–	–	–	–
G35C G38U C50G C68A C70A	0.000136 ± 3.2e-05 s⁻¹	–	–	–	0.000258 ± 3.9e-05 s⁻¹
G35U C68G	0.000484 ± 0.00019 s⁻¹	–	–	–	–
G37A C68A	< 1e-05 s⁻¹	< 1e-05 s⁻¹	< 1e-05 s⁻¹	< 1e-05 s⁻¹	< 1e-05 s⁻¹
G37C U45C	< 1e-05 s⁻¹	< 1e-05 s⁻¹	–	–	–
A36C C50G C70U	0.000435 ± 0.00014 s⁻¹	–	–	0.00027 ± 0.0001 s⁻¹	0.000831 ± 0.00026 s⁻¹
G38C A39C G40C C50A A53G U65C	< 1e-05 s⁻¹	–	–	–	–
U30G U56G C58U U69C	< 1e-05 s⁻¹	–	–	–	–
C34A G37C A48C	< 1e-05 s⁻¹	–	–	–	< 1e-05 s⁻¹
A36G A42G A52G	< 1e-05 s⁻¹	–	< 1e-05 s⁻¹	< 1e-05 s⁻¹	–
U31C G44A	< 1e-05 s⁻¹	< 1e-05 s⁻¹	–	–	–
U31A G43U	< 1e-05 s⁻¹	< 1e-05 s⁻¹	–	–	–
G38A G41C G43U	< 1e-05 s⁻¹	–	–	–	–
C34A C70U	< 1e-05 s⁻¹	< 1e-05 s⁻¹	–	–	–
A36G G51A A52G	< 1e-05 s⁻¹	–	–	–	–
A33G U45A C50G U54G G60A C67A	0.000354 ± 9.5e-05 s⁻¹	–	–	–	0.000164 ± 5.5e-05 s⁻¹
